Test results: patent US20210220471A1, “METHODS OF USING PHARMACOLOGIC INHIBITORS OF TYPE 2 CYTOKINE SIGNALING TO TREAT OR PREVENT PANCREATIC CANCER” (Memorial Sloan Kettering Cancer Center, priority 2018, published 2021)
“Also recorded” adds a separate entry of the source.

B1: recombinant IL-4: recombinant IL-4 cytokine (protein, UniProt P05112 25-153, looked up)
Interleukin-4: HKCDITLQEIIKTLNSLTEQKTLCTELTVTDIFAASKNTTEKETFCRAATVLRQFYSHHEKDTRCLGATAQQFHRHKQLIRFLKRLDRNLWGLAGLNSCPVKEANQSTLENFLERLKTIMREKYSKCSS
B2: rIl-33: murine recombinant Il-33 (#580504, R&D Systems) (protein, UniProt Q8BVZ5 1-266, looked up)
Interleukin-33: MRPRMKYSNSKISPAKFSSTAGEALVPPCKIRRSQQKTKEFCHVYCMRLRSGLTIRKETSYFRKEPTKRYSLKSGTKHEENFSAYPRDSRKRSLLGSIQAFAASVDTLSIQGTSLLTQSPASLSTYNDQSVSFVLENGCYVINVDDSGKDQEQDQVLLRYYESPCPASQSGDGVDGKKLMVNMSPIKDTDIWLHANDKDYSVELQRGDVSPPEQAFFVLHKKSSDFVSFECKNLPGTYIGVKDNQLALVEEKDESCNNIMFKLSKI

Tests used:
[1] = tested on: mutant Kras pancreatic organoids; assay: Growth of mutant Kras pancreatic organoids with recombinant IL-4 / IL-13 (Cell Titer Glo); format: cell-based, mouse; conditions: pre-malignant mutant Kras G12D; for proliferation (Cell Titer Glo): 6-day growth; for proliferation (Cell Titer Glo) after cytokine pre-treatment: pre-treatment with the cytokines during 2 weeks
Experimental: Isolation, culture and genetic manipulation of pancreatic organoids. To isolate untransformed ductal organoids for the transplantable PDAC tumorigenesis model, normal pancreas from LSL-KrasG12D mice (pure Bl/6N background) minced and digested with 0.012% collagenase XI (C9407, Sigma-Aldrich) and 0.012% Dispase (17105041, Life Technologies) in HBSS with Mg^2+ and Ca^2+ (14025076, Thermo Fisher Scientific) at 37° C. for a maximum of 30 mins. The material was further digested with TrypLE (GIBCO) for 5 min at 37° C., washed twice with DMEM/F12 (Life Technologies) supplemented with 2 mM glutamine and penn-strep, embedded in growth factor reduced matrigel (Corning), and cultured in complete medium, as described in Boj et al 2014. For activation of mutant Kras, organoids haroburing the LSL-KrasG12D allele were transduced with Ad-mCherry-Cre (Vector Biolabs), and Cherry^+ cells were sorted from single cell organoid suspension by flow cytometry 36h thereafter. Resulting clones were assessed for LSL-KrasG12D recombination by genotyping PCR in genomic DNA using the following primers: 5′ gtc ttt ccc cag cac agt gc 3′ (SEQ ID NO: 19), 5′ ctc ttg cct acg cca cca get c 3′ (SEQ ID NO: 20), and 5′ agc tag cca cca tgg ctt gag taa gtc tgc a 3′ (SEQ ID NO: 21). Validated Cre-recombined clones were then subjected to CRISPR-based inactivation of Trp53 using the PX458 vector (Addgene #48138) and gRNA […] sequence (SEQ ID NO: 22). PX458-sgTrp53 was transduced into organoids by transient transfection using the spinoculation method previously described (O'Rourke et al., 2017), with the modification of using the Effectene transfection reagent (Qiagen). PX458-sgTrp53 introduced cells were sorted by GFP positivity with flow cytometry 36h post-transfection. p53 null status of targeted clones was validated by western blot, using anti-p53 antibody (CMS, Leica Microsystem) and anti-β-actin-peroxidase antibody (Sigma-Aldrich) as normalization control.
This activation was specific (i.e. not observed for many other cytokine receptors, nor during normal pancreas regeneration) and is associated with the emergence of multiple de novo ATAC peaks (FIG. 14B). Preliminary gain-of-function experiments in mutant Kras pancreatic organoids indicate that these druggable Th2 cytokine receptors are functional and modulate organoid growth in vitro (FIG. 14C).

[2] = tested on: Kras-wild type (C-GEMM) mice; assay: Recombinant Il-33 treatment of Kras wild-type (C-GEMM) mice; format: in vivo, mouse; conditions: 21 days after treatment; for pancreas histology (H&E, Alcian Blue): same dosing
Experimental: (§1) To compare the effects of tissue injury in the transcriptional and chromatin accessibility landscapes of mutant Kras-expressing or Kras wild-type pancreatic epithelial cells, KC;RIK (p48-Cre;RIK;LSLKrasG12D) or C;RIK (p48-Cre;RIK) male mice were treated with 8 hourly intraperitoneal injections of 80 μg/kg caerulein (Bachem) or PBS for 2 consecutive days, using littermates when possible. To characterize invasive disease, pancreatic ductal adenocarcinoma (PDAC) cells were isolated from cancer lesions arising in autochthonous transgenic models (KPflC;RIK (p48Cre;RIK;LSL-KrasG12D;p53fl/^+) that were macro-dissected away from pre-malignant tissue. As an orthogonal approach, C57Bl/6 female mice (Harlan) were subjected to for orthotopic transplantations with syngeneic ductal organoids harboruing mutant Kras and inactivated Trp53 gene (see below). Prior to transplantation, organoid cultures were dissociated with TrypLE (Gibco) after mechanical dissociation by pipetting and 1-2×10^5 cells in serum-free advanced DMEM/F12 (Life Technologies) supplemented with 2 mM glutamine and penn-strep were mixed 1:1 with growth factor reduced matrigel (Corning) and injected into the exposed pancreas of 8-10 weeks old C57B16/N mice using a Hamilton syringe fitted with a 26 gauge needle. For treatment with recombinant Il-33, 5 weeks-old C or KC mice were injected intraperitoneally once daily doses with 1 ug of murine recombinant Il-33 (#580504, R&D Systems) or vehicle (PBS) for 5 consecutive days.
(§2) Immunofluorescence, immunohistochemistry and histological analyses. Tissues were fixed overnight in 10% neutral buffered formalin (Richard-Allan Scientific), embedded in paraffin and cut into 5 μm sections. Slides were heated for 30 min at 55° C., deparaffinized, rehydrated with an alcohol series and subjected to antigen retrieval with citrate buffer (Vector Laboratories Unmasking Solution, H-3300) for 25 min in a pressure cooker set on high. Sections were treated with 3% H2O2 for 10 min followed by a wash in dionized water (for immunohistochemistry only), washed in PBS, then blocked in PBS/0.1% Triton X-100 containing 1% BSA. Primary antibodies were incubated overnight at 4° C. in blocking buffer. The following primary antibodies were used: mKate2 (Evrogen, AB233), GFP (ab13970, Abcam and 2956S, Cell Signaling Technology), Brd4 (HPA015055, Sigma-Aldrich), Myc (ab32072, Abcam), Cpa1 (R&D, AF2765), Clusterin (SCBT sc-6419), SOX9 (Millipore AB553), Amylase (sc-31869, Santa Cruz), Krt19 (Troma III, Developmental Studies Hybridoma Bank) and Il-33 (AF3626, R&D). For mKate2, GFP and cMyc immunohistochemistry, Vector ImmPress HRP kits and ImmPact DAB (Vector Laboratories) were used for secondary detection. […]

[3] = tested on: Kras mutant (KC-GEMM) mice; assay: Recombinant Il-33 treatment of Kras mutant (KC-GEMM) mice; format: in vivo, mouse; conditions: for expression of cell fate / PanIN markers (Agr2, Muc6, Dclk1, Cpa1, Sox9) in mKate2+ pancreatic epithelial cells: KC mice, qRT-PCR, 21 days after treatment; for mutant KRAS-driven tumorigenesis / mucinous PanIN lesions (H&E, Alcian Blue, mKate2) / expansion of Dclk1+ cancer stem cells (Dclk1 immunofluorescence): KC-GEMM mice, 5 consecutive days; for mutant KRAS-driven tumorigenesis / mucinous PanIN lesions (H&E, Alcian Blue, mKate2): 1 ug/mouse i.p. once daily, analyzed 21 days thereafter, vs vehicle (PBS); for expansion of Dclk1+ cancer stem cells (Dclk1 immunofluorescence): 1 ug/mouse, day 21 post-treatment
Experimental: as §1
as §2, with “detection. Tissues were then counterstained with Haematoxylin or when indicated Alcian blue (pH 2.5) and 0.1% Nuclear Fast Red Solution, dehydrated and mounted with Permount (Fisher). The immunohistochemistry detection of Brd4 was performed at the Molecular Cytology Core Facility of Memorial Sloan Kettering Cancer Center using Discovery XT processor (Ventana Medical Systems-Roche). The tissue sections were blocked for 30 min in 10% normal goat serum, 2% BSA in PBS. A rabbit polyclonal anti-Brd4 antibody (HPA015055, Sigma-Aldrich) was used in 1 ug/ml (1:100) concentrations. The incubation with the primary antibody was done for 6 hours, followed by 60 minutes incubation with biotinylated goat anti-rabbit IgG (PK610, Vector labs) in 5.75 ug/mL concentration. Blocker D, Streptavidin-HRP and DAB detection kit (760-124, Ventana Medical Systems-Roche) were used according to the manufacturer instructions. Slides were counterstained with Hematoxylin (760-2021, Ventana), Bluing Reagent (760-2037, Ventana) and coverslipped with Permount (Fisher Scientific).” for “detection.”

| Molecule | proliferation (Cell Titer Glo) [1] | proliferation (Cell Titer Glo) after cytokine pre-treatment [1] | expression of cell fate / PanIN markers in mKate2+ pancreatic epithelial cells [2] | expression of cell fate / PanIN markers in mKate2+ pancreatic epithelial cells ([2]; listed as recombinant IL-33) | pancreas histology (H&E, Alcian Blue) [2] | pancreas histology (H&E, Alcian Blue) ([2]; listed as recombinant IL-33) | expression of cell fate / PanIN markers (Agr2, Muc6, Dclk1, Cpa1, Sox9) in mKate2+ pancreatic epithelial cells [3] | expression of cell fate / PanIN markers (Agr2, Muc6, Dclk1, Cpa1, Sox9) in mKate2+ pancreatic epithelial cells ([3]; listed as recombinant IL-33) | mutant KRAS-driven tumorigenesis / mucinous PanIN lesions (H&E, Alcian Blue, mKate2) [3] | mutant KRAS-driven tumorigenesis / mucinous PanIN lesions (H&E, Alcian Blue, mKate2) ([3]; listed as recombinant IL-33) | expansion of Dclk1+ cancer stem cells (Dclk1 immunofluorescence) ([3]; listed as Recombinant IL-33) | expansion of Dclk1+ cancer stem cells (Dclk1 immunofluorescence) ([3]; listed as recombinant IL-33) |
| --- | --- | --- | --- | --- | --- | --- | --- | --- | --- | --- | --- | --- |
| IL-13: recombinant IL-13 cytokine | pro-proliferative effects | further enhanced | – | – | – | – | – | – | – | – | – | – |
| B1 | pro-proliferative effects | further enhanced | – | – | – | – | – | – | – | – | – | – |
| B2 | – | – | no detectable effects | no effect | no detectable effects; also recorded: retain normal architecture | no effect | selective effects | accelerates mutant KRAS-driven tumorigenesis | sufficient to trigger many of the tumor-promoting outputs of injury in the mutant Kras setting; also recorded: accelerated ADR with development of mucinous lesions | promoted tumorigenesis; also recorded: accelerates mutant KRAS-driven tumorigenesis; also recorded: enhanced tumorigenesis | sufficient to drive expansion of Dclk1^+ cancer stem cells in vivo | cancer stem cell expansion |
